Data on eight molecules can be found in paper PMC9965349 (Viruses, 2023).

One may read the koff as the first-order rate constant of dissociation. A high value points to fast dissociation. As a reminder, the kon is the rate constant with which the complex forms. A high value points to fast association.

For data set [1], the target named is PEDV S1 protein (Porcine epidemic diarrhea virus, UniProt Q91AV1). Briefly: SPR kinetic measurement (Biacore X100, CM5 chip). The format is binding. (In general: SPR reads the build-up and loss of mass on a sensor chip optically.)
Data set [2] deals with Vero cells. Put plainly: Cytotoxicity assay (CCK-8). It counts as cell-based, African green monkey.
Data set [3] concerns the target T1, porcine epidemic diarrhea virus S protein (PEDV-S1) (porcine epidemic diarrhea virus).
T1 chain: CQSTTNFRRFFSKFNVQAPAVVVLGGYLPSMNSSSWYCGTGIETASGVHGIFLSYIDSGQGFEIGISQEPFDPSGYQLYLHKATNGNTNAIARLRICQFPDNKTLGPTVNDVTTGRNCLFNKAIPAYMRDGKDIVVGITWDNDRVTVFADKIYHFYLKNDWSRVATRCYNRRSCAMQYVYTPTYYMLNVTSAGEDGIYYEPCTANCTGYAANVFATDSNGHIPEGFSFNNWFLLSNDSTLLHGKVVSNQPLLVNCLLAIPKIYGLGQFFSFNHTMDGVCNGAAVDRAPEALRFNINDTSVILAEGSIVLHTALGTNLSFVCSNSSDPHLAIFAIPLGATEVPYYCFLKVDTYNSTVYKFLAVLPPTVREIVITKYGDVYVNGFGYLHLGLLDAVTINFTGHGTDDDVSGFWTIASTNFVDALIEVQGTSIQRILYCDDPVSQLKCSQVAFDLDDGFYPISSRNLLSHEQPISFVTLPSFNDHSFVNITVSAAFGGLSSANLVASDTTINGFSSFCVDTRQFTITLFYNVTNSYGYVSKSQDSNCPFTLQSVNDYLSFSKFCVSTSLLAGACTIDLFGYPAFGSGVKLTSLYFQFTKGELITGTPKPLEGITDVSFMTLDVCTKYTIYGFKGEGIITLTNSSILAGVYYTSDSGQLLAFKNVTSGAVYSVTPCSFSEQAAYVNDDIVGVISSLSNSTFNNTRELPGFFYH
Briefly: ELISA. To be noted: both partners purified. Background: ELISA stands for enzyme-linked immunosorbent assay.

In data set [4] the target is T1, porcine epidemic diarrhea virus S …. Briefly: SPR. To be noted: both partners purified.
Setting [5] is: SPR, 1:1 binding fit, peptide 0.78125-25 μM, HBS-EP pH 7.4, 30 μL/min, 120 s association, 120 s dissociation.

Read-outs that look alike come from different tables or passages of the source. Residues, ends and D or L forms follow the SMILES beside them.

`C[C@H](NC(=O)[C@H](CCC(=O)O)NC(=O)[C@H](CCCCN)NC(=O)[C@H](Cc1c[nH]c2ccccc12)NC(=O)[C@@H](N)Cc1ccccc1)C(=O)N[C@@H](CCCCN)C(=O)O` [compound 110616] (H-FWKEAK-OH) had a Kd in data set [1] of 772 nM.
With `N=C(N)NCCC[C@H](NC(=O)[C@H](CCCCN)NC(=O)[C@H](CO)NC(=O)[C@H](CCCCN)NC(=O)[C@H](Cc1c[nH]c2ccccc12)NC(=O)[C@@H](N)Cc1ccccc1)C(=O)O` [compound 110766], in data set [1], the Kd came out at 216 nM. In data set [2] (0.78125-400 µM, 24 h at 37 °C, normalized to control without peptide), the “Cell viability (CCK-8)” value is “over 90%”. In addition, in data set [2] (CCK-8), the “Cytotoxicity (in words)” value was “not toxic to vero cells”.
The molecule `N=C(N)NCCC[C@H](NC(=O)[C@H](CC(N)=O)NC(=O)[C@H](Cc1ccccc1)NC(=O)[C@H](Cc1c[nH]cn1)NC(=O)[C@@H](N)Cc1c[nH]c2ccccc12)C(=O)N1CCC[C@H]1C(=O)O` [compound 115042] (H-WHFNRP-OH) had a Kd in data set [1] of 6520 nM.
For FWKQNKFLFWKQNKCL [compound 110490], in data set [1] (setting [5]), the Ka was 5743 M⁻¹ s⁻¹ and the Kd came to 0.03522 s⁻¹.

B1: peptide 110616 (peptide)
peptide: FWKEAK
The molecule B1 came in with a P/N value in data set [3] above 67.9. In data set [4], this molecule displayed a Kd of 772 nM, an off-rate constant (koff) of 0.0236 s⁻¹ and a kon of 30500 M⁻¹ s⁻¹.

B2: peptide 110766 (peptide)
peptide: FWKSKR
B2 had a Kd in data set [4] of 216 nM.

B3: peptide 115042 (peptide)
peptide: WHFNRP
B3 displayed a P/N value in data set [3] above 67.9. Moreover, in data set [4], the Kd worked out at 6520 nM, the dissociation rate constant (koff) was 0.0225 s⁻¹ and the kon stood at 3450 M⁻¹ s⁻¹.

B4: peptide 110490 (peptide)
peptide: FWKQNKFLFWKQNKCL
The molecule B4 yielded a P/N value in data set [3] above 67.9. In data set [4], this molecule registered a Kd of 1500 nM, a dissociation rate constant (koff) of 0.0352 s⁻¹ and a kon of 5740 M⁻¹ s⁻¹.
